In patent publication US9695228B2, “EGFR and c-Met fibronectin type III domain binding molecules” (Janssen Biotech, Inc., priority 2012, dated 2017):
“And” between values parts separate entries of the source, which are not always exact repeats. Equal values may be shown once. “Also recorded” adds a separate entry of the source. Read-outs that look alike come from different tables or passages of the source.

Assays:
[1] = test system: NCI-H292 cells expressing human HGF, xenograft; assay: Tumor efficacy study with bispecific molecules of variable affinity, H292-HGF xenograft; type: in vivo, mice; details: 25 mg/kg three times per week, FIG. 8
Protocol: One week after implantation, mice were stratified into groups with equivalent tumor volumes (mean tumor volume=77.9+/−1.7 mm^3). Mice were dosed three times per week with the bispecific molecules and tumor volumes were recorded twice weekly.

[2] = test system: H292-HGF human lung cancer xenograft; type: in vivo
Protocol: The H292-HGF cells were maintained in vitro in RPMI1640 medium supplemented with fetal bovine serum (10% v/v), and L-glutamine (2 mM) at 37° C. in an atmosphere of 5% CO2 in air. The cells were routinely subcultured twice weekly by trypsin-EDTA treatment. The cells growing in an exponential growth phase were harvested and counted for tumor inoculation.
Each mouse was inoculated subcutaneously at the right flank region with H292-HGF tumor cells (2×10^6) in 0.1 ml of PBS with cultrex (1:1) for tumor development. The treatments were started when the mean tumor size reached 139 mm^3. […] The date of tumor cell inoculation was denoted as day 0.
Before commencement of treatment, all animals were weighed and the tumor volumes were measured. Since the tumor volume can affect the effectiveness of any given treatment, mice were assigned into groups using randomized block design based upon their tumor volumes. […] The randomized block design was used to assign experimental animals to groups. First, the experimental animals were divided into homogeneous blocks according to their initial tumor volume. Secondly, within each block, randomization of experimental animals to treatments was conducted.
At the time of routine monitoring, the animals were checked for any effects of tumor growth and treatments on normal behavior, such as mobility, visual estimation of food and water consumption, body weight gain/loss (body weights were measured twice weekly), eye/hair matting and any other abnormal effect.
The endpoint was whether tumor growth can be delayed or tumor bearing mice can be cured. Tumor size was measured twice weekly in two dimensions using a caliper, and the volume was expressed in mm^3 using the formula: V=0.5 a×b^2 where a and b are the long and short diameters of the tumor, respectively. The tumor size was then used for calculations of both T-C and T/C values. T-C was calculated with T as the time (in days) required for the mean tumor size of the treatment group to reach 1000 mm^3, and C was the time (in days) for the mean tumor size of the control group to reach the same size. The T/C value (in percent) was an indication of antitumor efficacy; T and C were the mean tumor volume of the treated and control groups, respectively, on a given day. Complete tumor regression (CR) is defined as tumors that are reduced to below the limit of palpation (62.5 mm^3). Partial tumor regression (PR) is defined as tumors that are reduced from initial tumor volume. A minimum duration of CR or PR in 3 or more successive tumor measurements is required for a CP or PR to be considered durable.
Animals for which the body weight loss exceeded 20%, or for which the mean tumor size of the group exceeds 2000 mm^3 were euthanized. The study was terminated after two weeks of observation after the final dose.
Statistical analyses of difference in tumor volume among the groups were evaluated using a one-way ANOVA followed by individual comparisons using Games-Howell (equal variance not assumed). All data were analyzed using SPSS 18.0. p<0.05 was considered to be statistically significant.

[3] = Differential scanning calorimetry in PBS (thermal stability); type: physicochemical; details: DSC in PBS, c-Met-binding FN3 domains
[4] = test system: NCI-H1975 cell line; assay: Inhibition of growth of NCI-H1975 cell line (EGFR L858R; T790M); type: cell-based, human; details: NCI-H1975, mutation T790M
Protocol: Inhibition of human tumor cell growth was assessed in standard attachment culture as described in Examples 3 or 6, or in low attachment conditions.

[5] = target: T1, c-Met-Fc fusion protein (Homo sapiens, UniProt P08581); assay: c-Met-Fc affinity by surface plasmon resonance (ProteOn); type: binding; details: serine mutants of A3 in the context of ECB15, SPR
T1 construct: recombinant EGFR and/or c-Met extracellular domain was further analyzed by surface Plasmon resonance
T1 sequence (P08581 25-932 limits assumed): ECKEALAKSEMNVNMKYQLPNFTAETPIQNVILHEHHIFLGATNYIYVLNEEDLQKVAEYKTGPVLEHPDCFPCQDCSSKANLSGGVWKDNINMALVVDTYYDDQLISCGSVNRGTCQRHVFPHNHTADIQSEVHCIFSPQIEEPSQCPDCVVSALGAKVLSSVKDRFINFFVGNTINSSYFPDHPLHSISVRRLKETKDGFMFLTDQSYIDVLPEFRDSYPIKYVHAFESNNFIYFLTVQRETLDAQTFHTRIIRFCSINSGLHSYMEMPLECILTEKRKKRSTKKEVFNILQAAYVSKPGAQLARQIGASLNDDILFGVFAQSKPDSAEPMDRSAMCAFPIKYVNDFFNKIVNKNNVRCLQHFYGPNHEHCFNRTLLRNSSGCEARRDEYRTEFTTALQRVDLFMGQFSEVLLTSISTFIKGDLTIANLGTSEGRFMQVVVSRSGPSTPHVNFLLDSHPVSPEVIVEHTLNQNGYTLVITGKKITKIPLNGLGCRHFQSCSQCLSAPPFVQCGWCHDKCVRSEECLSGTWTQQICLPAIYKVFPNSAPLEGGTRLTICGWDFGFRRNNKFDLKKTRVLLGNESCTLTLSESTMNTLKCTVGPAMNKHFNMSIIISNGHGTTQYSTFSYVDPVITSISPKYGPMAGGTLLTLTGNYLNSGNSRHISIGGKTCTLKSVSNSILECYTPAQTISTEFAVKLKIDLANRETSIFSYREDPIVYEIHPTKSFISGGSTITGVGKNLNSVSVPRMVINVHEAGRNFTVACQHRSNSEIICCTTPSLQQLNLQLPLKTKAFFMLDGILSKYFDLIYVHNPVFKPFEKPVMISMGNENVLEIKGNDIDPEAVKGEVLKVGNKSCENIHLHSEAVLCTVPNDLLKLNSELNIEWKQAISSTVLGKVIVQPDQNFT

B1: ECB18: bispecific linked to albumin binding domain, SEQ ID NO: 118; high EGFR / medium c-Met affinity (protein)
chain: MLPAPKNLVVSEVTEDSARLSWDDPWAFYESFLIQYQESEKVGEAIVLTVPGSERSYDLTGLKPGTEYTVSIYGVHNVYKDTNMRGLPLSAIFTTAPAPAPAPAPLPAPKNLVVSRVTEDSARLSWTAPDAAFDSFWIRYDEVVVGGEAIVLTVPGSERSYDLTGLKPGTEYYVNILGVKGGSISVPLSAIFTTAPAPAPAPAPLAEAKVLANRELDKYGVSDYYKNLINNAKTVEGVKALLDEILAALP
modifications: Bispecific EGFR/c-Met binding molecule
[1]
  tumor growth inhibition (in words): delay in tumor growth

B2: ECB38: bispecific linked to albumin binding domain, SEQ ID NO: 120; high EGFR / high c-Met affinity; test article of Tables 14-16 (protein)
chain: MLPAPKNLVVSEVTEDSARLSWDDPWAFYESFLIQYQESEKVGEAIVLTVPGSERSYDLTGLKPGTEYTVSIYGVHNVYKDTNMRGLPLSAIFTTAPAPAPAPAPLPAPKNLVVSRVTEDSARLSWTAPDAAFDSFWIRYFEFLGSGEAIVLTVPGSERSYDLTGLKPGTEYVVNIMGVKGGKISPPLSAIFTTAPAPAPAPAPLAEAKVLANRELDKYGVSDYYKNLINNAKTVEGVKALLDEILAALP
modifications: Bispecific EGFR/c-Met binding molecule
[2]; 25 mg/kg, 3 times/week x 3 weeks
  treatment tolerated: 7 out of 10
[2]; day 7 (start of treatment), mean ± SEM, doses as in column head
  Tumor volume: 137 ± 7 mm^3
[2]; day 9, mean ± SEM
  Tumor volume: 142 ± 7 mm^3
[2]; day 13, mean ± SEM
  Tumor volume: 83 ± 6 mm^3
[2]; day 16, mean ± SEM
  Tumor volume: 44 ± 7 mm^3
[2]; day 20, mean ± SEM
  Tumor volume: 30 ± 6 mm^3
[2]; day 23, mean ± SEM
  Tumor volume: 23 ± 7 mm^3
[2]; day 23 after tumor inoculation, doses given with treatment, listed as bispecific EGFR/c-Met molecule
  Tumor Size at day 23: 23 mm^3 and 23 ± 7 mm^3
[2]; day 27, mean ± SEM
  Tumor volume: 21 ± 5 mm^3
[2]; day 30, mean ± SEM
  Tumor volume: 23 ± 6 mm^3
[2]; doses as in Table 14, listed as bispecific EGFR/c-Met molecule
  antitumor activity (in words): complete tumor regression (CR) in all mice; also recorded: complete response
[2]; mouse, in vivo
  mice euthanized when BWL>20% during the treatment period: 3 mice
  tolerability / body weight loss (in words): Slight toxicity
[1]
  tumor growth inhibition (in words): showed the most efficacy

B3: P114AR7P95-H8: c-Met-binding FN3 domain, SEQ ID NO: 49 (protein)
chain: LPAPKNLVVSRVTEDSARLSWTAPDAAFDSFWIRYFEFVSKGEAIVLTVPGSERSYDLTGLKPGTEYVVNIMGVKGGSISPPLSAIFTT
modifications: c-Met binding FN3 domain
[3]
  Thermal Stability (Tm): 83 C.

B4: P114AR5P74-A5: c-Met-binding FN3 domain, SEQ ID NO: 32 (protein)
chain: LPAPKNLVVSRVTEDSARLSWTAPDAAFDSFWIRYDEVVVGGEAIVLTVPGSERSYDLTGLKPGTEYYVNILGVKGGSISVPLSAIFTT
modifications: c-Met binding FN3 domain
[3]
  Thermal Stability (Tm): 74.1 C.

B5: P114AR7P92-F6: c-Met-binding FN3 domain, SEQ ID NO: 35 (protein)
chain: LPAPKNLVVSRVTEDSARLSWTAPDAAFDSFWIRYFEFLGSGEAIVLTVPGSERSYDLTGLKPGTEYVVNILGVKGGGLSVPLSAIFTT
modifications: c-Met binding FN3 domain
[3]
  Thermal Stability (Tm): 76.8 C.

B6: ECB15: bispecific, SEQ ID NO: 57 (145 in Table 19): P54AR4-83v2-(AP)5-P114AR7P94-A3 (protein)
chain: MLPAPKNLVVSEVTEDSARLSWDDPWAFYESFLIQYQESEKVGEAIVLTVPGSERSYDLTGLKPGTEYTVSIYGVHNVYKDTNMRGLPLSAIFTTAPAPAPAPAPLPAPKNLVVSRVTEDSARLSWTAPDAAFDSFWIRYFEFLGSGEAIVLTVPGSERSYDLTGLKPGTEYVVNIMGVKGGKISPPLSAIFTT
modifications: bispecific EGFR/cMet binding molecule
[4]
  inhibition of growth (in words): inhibited growth of NCI-H1975 cell line
[5]
  ka: 351000 M⁻¹ s⁻¹
  kd: 0.000133 s⁻¹

B7: ECB39: bispecific linked to albumin binding domain, SEQ ID NO: 121; medium EGFR / high c-Met affinity (protein)
chain: MLPAPKNLVVSEVTEDSARLSWADPHGFYDSFLIQYQESEKVGEAIVLTVPGSERSYDLTGLKPGTEYTVSIYGVHNVYKDTNMRGLPLSAIFTTAPAPAPAPAPLPAPKNLVVSRVTEDSARLSWTAPDAAFDSFWIRYFEFLGSGEAIVLTVPGSERSYDLTGLKPGTEYVVNIMGVKGGKISPPLSAIFTTAPAPAPAPAPLAEAKVLANRELDKYGVSDYYKNLINNAKTVEGVKALLDEILAALP
modifications: Bispecific EGFR/c-Met binding molecule
[1]
  tumor growth inhibition (in words): showed the most efficacy
